We go through nine molecules from US20080207540, “Method For the Identification of Compounds Modulating Reverse Transport of Cholesterol” (Genfit, published 2008).

In data set [1] the target is T1, FXR (UniProt Q96RI1 Q96RI1:1-486).
T1 sequence: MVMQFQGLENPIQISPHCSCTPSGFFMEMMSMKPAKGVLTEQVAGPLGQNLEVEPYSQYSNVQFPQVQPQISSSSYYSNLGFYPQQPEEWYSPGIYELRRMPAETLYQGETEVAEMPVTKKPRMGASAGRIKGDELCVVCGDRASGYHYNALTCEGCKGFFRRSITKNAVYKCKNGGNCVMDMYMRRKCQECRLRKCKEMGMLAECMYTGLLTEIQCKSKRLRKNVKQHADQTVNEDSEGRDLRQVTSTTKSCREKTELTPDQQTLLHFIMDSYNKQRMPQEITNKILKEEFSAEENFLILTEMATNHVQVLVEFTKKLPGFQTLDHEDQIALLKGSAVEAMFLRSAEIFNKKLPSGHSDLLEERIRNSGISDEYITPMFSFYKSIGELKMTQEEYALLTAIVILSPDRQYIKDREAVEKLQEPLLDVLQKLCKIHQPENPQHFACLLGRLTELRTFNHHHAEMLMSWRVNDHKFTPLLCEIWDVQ
Put plainly: EMSA; no complex. The settings on record: tags: none stated; TNT-T7 rabbit reticulocyte lysate, vector pCDNA3-FXR; label: 32P.

Data set [2] deals with T2, LRH-1 (hLRH-1, NR5A2) (Homo sapiens, UniProt O00482 O00482:1-541). Description: EMSA; specific complex; low affinity site, as competitor only partially displaces Cyp7a probe (FIG. 4A). The settings on record: tags: none stated; TNT-T7 rabbit reticulocyte lysate, vector pCI-hLRH-1; label: 32P. The protocol: (§1) 2 μl of rabbit reticulocyte lysate programmed by hLRH-1 were incubated for 15 minutes at room temperature in a final volume of 20 μl of buffer containing 10 mM HEPES, 2.5 mM MgCl₂, 10% glycerol, 2.5 mg/ml BSA, 50 mM NaCl and 0.5 mM DTT with 2.5 μg of polydl-dC and 1 μg of herring sperm DNA in the presence of the labelled double-stranded oligonucleotides (0.5 ng). The complexes were then separated by non-denaturing gel electrophoresis in TBE 0.25X buffer.
T2 sequence (O00482 whole entry, one chain of several): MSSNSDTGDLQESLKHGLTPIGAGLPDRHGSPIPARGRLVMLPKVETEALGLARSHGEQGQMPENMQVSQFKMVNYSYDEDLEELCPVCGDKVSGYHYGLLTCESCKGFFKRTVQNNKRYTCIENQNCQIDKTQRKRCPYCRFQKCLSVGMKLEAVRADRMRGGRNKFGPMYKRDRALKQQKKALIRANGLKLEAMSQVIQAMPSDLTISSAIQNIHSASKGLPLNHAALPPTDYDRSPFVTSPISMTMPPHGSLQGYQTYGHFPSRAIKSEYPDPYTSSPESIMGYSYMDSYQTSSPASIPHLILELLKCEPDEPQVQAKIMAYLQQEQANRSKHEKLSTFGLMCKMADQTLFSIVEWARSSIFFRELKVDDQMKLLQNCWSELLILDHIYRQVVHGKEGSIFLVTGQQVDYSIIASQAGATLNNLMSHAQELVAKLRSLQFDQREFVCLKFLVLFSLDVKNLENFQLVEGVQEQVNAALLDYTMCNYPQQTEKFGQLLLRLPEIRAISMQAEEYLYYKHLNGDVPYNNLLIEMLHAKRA
(§2) In contrast, no complex was detected in the presence of labelled double-stranded oligonucleotide corresponding to the mutated response element (hCyp7a mut). […] On the other hand, a specific LRH-1/DNA complex formed with a labelled double-stranded oligonucleotide corresponding to fragment −144/−122 (LRHRE_ApoA1_h_{—}7) of the human apo AI gene promoter. Said fragment straddles regions B and C of the human apo AI promoter and contains, on the antisense strand, the sequence TCAAGGATC similar to the consensus sequence TCAAGGTCA of an LRH-1 response element.
Background: Mobility shift assays separate free from complexed probe on a gel.

For data set [3], the target named is T2, LRH-1 (hLRH-1, NR5A2). Description: EMSA; no complex. The settings on record: tags: none stated; TNT-T7 rabbit reticulocyte lysate, vector pCI-hLRH-1; label: 32P. The protocol:
as §1, §2

Data set [4] concerns the target T2, LRH-1 (hLRH-1, NR5A2). Description: EMSA; no complex; also no displacement as competitor (FIG. 4B). The settings on record: tags: none stated; TNT-T7 rabbit reticulocyte lysate, vector pCI-hLRH-1; label: 32P. On the procedure: as §1, §2
Data set [5] deals with T1, FXR. Description: EMSA; specific complex. The settings on record: tags: none stated; TNT-T7 rabbit reticulocyte lysate, vector pCDNA3-FXR; label: 32P.
Data set [6] concerns the target T2, LRH-1 (hLRH-1, NR5A2). Description: EMSA; specific complex. The settings on record: tags: none stated; TNT-T7 rabbit reticulocyte lysate, vector pCI-hLRH-1; label: 32P.
Data set [7] concerns the target T1, FXR. Put plainly: EMSA; complex lost. The settings on record: tags: none stated; TNT-T7 rabbit reticulocyte lysate, vector pCDNA3-FXR; label: 32P.
The target of data set [8] is T2, LRH-1 (hLRH-1, NR5A2). Put plainly: EMSA; FXR site mutation does not affect LRH-1 binding. The settings on record: tags: none stated; TNT-T7 rabbit reticulocyte lysate, vector pCI-hLRH-1; label: 32P.
Data set [9] has as its target T2, LRH-1 (hLRH-1, NR5A2). Put plainly: EMSA; 2.5 mM MgCl2, 50 mM NaCl, room temperature; higher affinity than apo AI -144/-122 by competition (Example 4). The settings on record: tags: none stated; TNT-T7 rabbit reticulocyte lysate, vector pCI-hLRH-1; label: 32P. On the procedure: as §1, §2
Data set [10] deals with T2, LRH-1 (hLRH-1, NR5A2). Put plainly: EMSA; no complex; no displacement as competitor (FIG. 4A). The settings on record: tags: none stated; TNT-T7 rabbit reticulocyte lysate, vector pCI-hLRH-1; label: 32P. The protocol:
as §1, §2

B1: LRHRE_ApoA1_h_7 (-144/-122) (dsDNA)
DNA 1: GATCCGGGACAGAGCTGATCCTTGAACTA
DNA 2: GATCTAGTTCAAGGATCAGCTCTGTCCCG
As to B1, the binding result with FXR [1] was “no binding”; with LRH-1 (hLRH-1, NR5A2) [2] it was “binds”.

B2: LRHRE_ApoA1_h_8 (-180/-158) (dsDNA)
DNA 1: GATCCAGCTTGCTGTTTGCCCACTCTATA
DNA 2: GATCTATAGAGTGGGCAAACAGCAAGCTG
B2: the binding result in the data set with LRH-1 (hLRH-1, NR5A2) [3] is on record as “no binding”.

B3: LRHRE_ApoA1_h_6 (-178/-145) (dsDNA)
DNA 1: GATCCTTGCCCACTCTATTTGCCCAGCCCCAA
DNA 2: GATCTTGGGGCTGGGCAAATAGAGTGGGCAAG
As to B3, in the data set with LRH-1 (hLRH-1, NR5A2) [3], the binding result is “no binding”.

B4: hCyp7a mut (dsDNA)
DNA 1: GATCTCTTAGTTCAATTCCAGTTAG
DNA 2: GATCCTAACTGGAATTGAACTAAGA
Take B4: the binding result with LRH-1 (hLRH-1, NR5A2) [4] is “no binding”.

B5: FXRRE_ApoA1_h_1 (dsDNA)
DNA 1: CAGAGCTGATCCTTGAACTCTTAAGTT
DNA 2: AACTTAAGAGTTCAAGGATCAGCTCTG
Take B5: the binding result in the data set with FXR [5] was “binds”; with LRH-1 (hLRH-1, NR5A2) [6], “binds”.

B6: FXRRE_ApoA1_h_1_mut (dsDNA)
DNA 1: CAGAGCTGATCCTTGAAGTGTTAAGTT
DNA 2: AACTTAACACTTCAAGGATCAGCTCTG
In the case of B6, the binding result is listed as “no binding” in the data set with FXR [7] and “binds” in the data set with LRH-1 (hLRH-1, NR5A2) [8].

B7: hCyp7a wt (dsDNA)
DNA 1: GATCTCTTAGTTCAAGGCCAGTTAG
DNA 2: GATCCTAACTGGCCTTGAACTAAGA
Turning to B7, the binding result in the data set with LRH-1 (hLRH-1, NR5A2) [9] is “binds”.

B8: LRHRE_ApoA1_h_5 (-191/-171) (dsDNA)
DNA 1: GATCCGCAGCCCCCGCAGCTTGCTGTA
DNA 2: GATCTACAGCAAGCTGCGGGGGCTGCG
As for B8, the binding result in the data set with LRH-1 (hLRH-1, NR5A2) [3] was “no binding”.

B9: LRHRE_ApoA1 mut (dsDNA)
DNA 1: GATCCGGGACAGAGCTGATTGTTGAACTA
DNA 2: GATCTAGTTCAACAATCAGCTCTGTCCCG
B9: the binding result in the data set with FXR [1] is on record as “no binding”; in the data set with LRH-1 (hLRH-1, NR5A2) [10] it was “no binding”.
